{
  "source": "paper doi:10.1101/2022.10.18.22281172",
  "key": {"[1]": {"molecular_target": "cynomolgus macaque FcRn (cynomolgus macaque) (UniProt Q8SPV9)", "sequence (Q8SPV9 24-365)": "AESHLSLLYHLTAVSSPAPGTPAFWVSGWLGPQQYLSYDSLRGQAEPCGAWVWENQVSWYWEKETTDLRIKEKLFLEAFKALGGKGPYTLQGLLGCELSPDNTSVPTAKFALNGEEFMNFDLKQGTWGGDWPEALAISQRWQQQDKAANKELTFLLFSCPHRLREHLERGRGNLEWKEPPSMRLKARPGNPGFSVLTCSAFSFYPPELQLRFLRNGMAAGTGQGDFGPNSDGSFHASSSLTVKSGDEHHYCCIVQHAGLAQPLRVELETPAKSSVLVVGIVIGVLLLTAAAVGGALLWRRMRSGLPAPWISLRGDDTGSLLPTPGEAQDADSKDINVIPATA", "assay": "SPR"}, "[2]": {"molecular_target": "human neonatal Fc receptor (human) (UniProt P55899)", "sequence (P55899 24-365)": "as the sequence (Q8SPV9 24-365) above, with D39N, Q44E, S99G, G189S, N190S, M217L, T269S, S319V, S332L, I335V counted along it", "assay": "SPR"}},
  "data": [
    {"substance": "adintrevimab (antibody)", "values": [
      {"measurement": "fold higher affinity relative to ADG2", "setting": "[1]", "value": 5, "unit": "fold"},
      {"measurement": "fold higher affinity relative to ADG2", "setting": "[2]", "value": 6, "unit": "fold"}
    ]}
  ]
}
